Data as given in publication PMC2034482.
Read-outs that look alike come from different tables or passages of the source.

T1: Pif1p (nuclear isoform) (Saccharomyces cerevisiae, UniProt P07271 40-859)
T1 sequence: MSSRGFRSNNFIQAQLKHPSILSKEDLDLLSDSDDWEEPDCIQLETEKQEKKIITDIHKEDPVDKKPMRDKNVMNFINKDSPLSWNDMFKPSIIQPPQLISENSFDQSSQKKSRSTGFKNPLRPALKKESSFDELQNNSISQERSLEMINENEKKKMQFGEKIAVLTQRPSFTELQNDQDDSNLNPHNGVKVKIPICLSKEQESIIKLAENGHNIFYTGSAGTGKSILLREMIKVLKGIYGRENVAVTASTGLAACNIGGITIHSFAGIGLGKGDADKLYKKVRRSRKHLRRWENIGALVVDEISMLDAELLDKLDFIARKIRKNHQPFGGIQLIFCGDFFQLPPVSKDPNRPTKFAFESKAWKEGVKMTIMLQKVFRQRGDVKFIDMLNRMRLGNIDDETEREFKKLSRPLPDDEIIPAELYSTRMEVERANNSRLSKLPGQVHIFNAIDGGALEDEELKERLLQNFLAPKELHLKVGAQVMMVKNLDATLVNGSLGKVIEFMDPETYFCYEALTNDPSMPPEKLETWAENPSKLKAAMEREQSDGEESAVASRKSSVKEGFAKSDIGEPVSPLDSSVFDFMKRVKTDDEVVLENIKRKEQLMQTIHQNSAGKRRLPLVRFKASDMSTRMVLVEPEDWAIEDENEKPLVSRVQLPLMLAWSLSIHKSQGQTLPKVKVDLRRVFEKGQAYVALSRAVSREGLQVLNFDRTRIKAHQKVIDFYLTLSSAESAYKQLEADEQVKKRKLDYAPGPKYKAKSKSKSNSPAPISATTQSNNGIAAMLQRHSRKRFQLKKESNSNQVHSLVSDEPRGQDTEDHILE

B1: D20 (dsDNA)
DNA 1: CGCCATGGTGATCCGAGTGC
DNA 2: CACTGGCCGTCTTACGGTCGGCACTCGGATCACCATGGCG
B2: fD20 (dsDNA)
DNA 1: CGCCATGGTGATCCGAGTGCAAAAAAAAAA
DNA 2: B1 DNA 2
B3: fR20 (DNA:RNA)
RNA: CGCCAUGGUGAUCCGAGUGCAAAAAAAAAA
DNA: B1 DNA 2
modifications: top strand RNA, bottom strand DNA
B4: R20 (DNA:RNA)
RNA: CGCCAUGGUGAUCCGAGUGC
DNA: B1 DNA 2
modifications: top strand RNA, bottom strand DNA

Assays:
Pif1p (nuclear isoform) [1] = molecular target: T1, Pif1p (nuclear isoform); assay: EMSA
Pif1p (nuclear isoform) [2] = molecular target: T1, Pif1p (nuclear isoform); assay: EMSA; remark: listed apart in the source

Binder | Kd (Pif1p (nuclear isoform) [1]) [nM] | Kd (Pif1p (nuclear isoform) [2]) [nM]
B1 | 100 | 
B2 | 130 | 320
B3 | 52 | 
B4 | 17 | 
